Experiment [1] has as its target T1, Human PSMA.ECD.His (Acro) (human, UniProt Q04609 44-750).
T1 construct: extracellular domain; Bought protein with His tag; also called human PSMA ECD protein; Human PSMA/FOLH1 protein, His tag
The experiment can be described thus: SPR (Biacore 8K), antibody captured by anti-human IgG Fc, PSMA injected, 1:1 model. The method, then:
(§1) Each antibody was captured on an anti-human IgG Fc antibody immobilized CM5 sensor chip (Cytiva). Human and cynomolgus PSMA at different concentrations were injected over the sensor chip at a flow rate of 30 μL/min for an association phase of 120-180 s, followed by 600-3600 s dissociation. The chip was regenerated by 10 mM glycine (pH 1.5) after each binding cycle.
(§2) The sensorgrams of blank surface and buffer channel were subtracted from the test sensorgrams. The experimental data was fitted by 1:1 binding model. Molecular weight of 81.4 and 82.7 kDa were used to calculate the molar concentration of human and cynomolgus PSMA.
(In general: Surface plasmon resonance follows binding to a sensor surface in real time, without labels.)

Experiment [2] concerns the target T2, Cyno PSMA.ECD.His (Acro) (cynomolgus, UniProt A0A2K5VNZ0 44-750).
T2 construct: extracellular domain; Bought protein with His tag; also called cynomolgus PSMA ECD protein; Cynomolgus PSMA/FOLH1 protein, His tag
The description is as above. The method, then: as §1, §2

The target of experiment [3] is T3, human PSMA on human prostate cancer cells (LNCaP, C4-2, 22Rv1) (human, UniProt Q04609 1-750).
T3 construct: whole, on cells; also called human PSMA-expressing LNCaP cells; C4-2 (PSMA High)
Nature of the experiment: flow cytometry on LNCaP cells. The protocol:
After washing the cells twice with 1×PBS/1% BSA, Alexa fluor 647-labeled goat anti-human antibody (1:500 diluted with 1×PBS/1% BSA) was added into the cells and incubated in a refrigerator set to 4° C. for 0.5 hour in the dark. After washing the cells twice with 1×PBS/1% BSA, the mean fluorescence intensity (MFI) of the cells was measured by a flow cytometer and analyzed by FLOWJO. The binding EC50 was calculated by GraphPad Prism through plotting antibody concentration (x-axis) versus MFI (y-axis) and analyzing as: Nonlinear regression (curve fit)-log (agonist) vs. response-Variable slope (four parameters).
On the technique in general: In flow cytometry, cells or beads pass a laser one at a time.

For experiment [4], the target named is T1, Human PSMA.ECD.His (Acro). Nature of the experiment: ELISA, human PSMA ECD captured by anti-His antibody. Background: In an ELISA, binding on a coated surface is turned into a signal by an enzyme label.
Experimental: Plate was pre-coated with 1 μg/mL THE™ His Tag Antibody overnight in a refrigerator set to 4° C. After blocking with 200 μL of 1×PBS/2% BSA for 1 hour, the plates were washed with 1×PBST for three times, then 0.5 g/mL human PSMA ECD protein diluted in 1×PBS/2% BSA was added in a volume of 50 μL/well to the plate and incubated for 1 hour at ambient temperature. […] After washing the plates with 1×PBST for three times, 50 μL/well of HRP-labeled goat anti-human IgG antibody (1:5000 diluted in 1×PBS/2% BSA) were added into the plate and incubated for 1 hour at ambient temperature. After washing the plates with 1×PBST for six times, the color was developed by dispensing 50 μL/well of TMB substrate for 4-8 minutes, and then the reaction was stopped by adding 50 μL/well of 2M HCl. The absorbance was read at 450 nm using a microplate reader. The binding EC50 was calculated by GraphPad Prism through plotting antibody concentration (x-axis) versus OD450 value (y-axis) and analyzing as: Nonlinear regression (curve fit)-log (agonist) vs. response-Variable slope (four parameters).
Experiment [5] concerns the target T2, Cyno PSMA.ECD.His (Acro). Nature of the experiment: ELISA, cynomolgus PSMA ECD captured by anti-His antibody.
Experimental: Plate was pre-coated with 1 μg/mL THETM His Tag Antibody overnight in a refrigerator set to 4° C. After blocking with 200 μL of 1×PBS/2% BSA for 1 hour, the plates were washed with 1×PBST for three times, then 0.5 μg/mL cynomolgus PSMA ECD protein diluted in 1×PBS/2% BSA was added in a volume of 50 μL/well to the plate and incubated for 1 hour at ambient temperature. […] After washing the plates with 1×PBST for three times, 50 μL/well of HRP-labeled goat anti-human IgG antibody (1:5000 diluted in 1×PBS/2% BSA) were added into the plate and incubated for 1 hour at ambient temperature. After washing the plates with 1×PBST for six times, the color was developed by dispensing 50 μL/well of TMB substrate for 4-8 minutes, and then the reaction was stopped by adding 50 μL/well of 2M HCl. The absorbance was read at 450 nm using a microplate reader. EC50 was determined as described above.
Experiment [6] has as its target T4, Mouse PSMA.ECD.His (Acro) (mouse, UniProt O35409 45-752).
T4 construct: extracellular domain; Bought protein with His tag; also called mouse PSMA protein (His tag); Mouse PSMA/FOLH1 protein, His tag
Nature of the experiment: ELISA, coated mouse PSMA protein (His tag). The protocol: Briefly, 2 μg/mL mouse PSMA protein (His tag) were coated onto well in ELISA plate in coating buffer for 16 hours in a refrigerator set to 4° C. After washing plate once time with 1×PBST, 200 μL/well 2% BSA were added into wells and incubated for one hour at ambient temperature. […] After washing six times with 1×PBST, 100 μL/well of TMB substrate solution were added into wells and incubated for 5 minutes in dark and then 100 μL/well of 2M HCL were added into wells to stop the reaction. The relative light unit (RLU) were measured at OD450 and OD540 by SPECTRAMAX M5E. EC50 was determined as described above.

The target of experiment [7] is T5, full-length cynomolgus PSMA on Flp-in CHO cells (WBP3xx042-FlpinCHO.cPro1.B7) (cynomolgus, UniProt A0A2K5VNZ0 1-750).
T5 construct: whole, on cells; also called Cyno PSMA+ CHO cells; FlpInCHO-cyno PSMA
Nature of the experiment: flow cytometry on cynomolgus PSMA-expressing CHO cells. The method, then: After washing the cells twice with 1×PBS/1% BSA, Alexa fluor 647-labeled goat anti-human antibody (1:500 diluted with 1×PBS/1% BSA) was added into the cells and incubated in a refrigerator set to 4° C. for 0.5 hour in the dark. After washing the cells twice with 1×PBS/1% BSA, the mean fluorescence intensity (MFI) of the cells was measured by a flow cytometer and analyzed by FLOWJO.

T1 sequence (Q04609 44-750): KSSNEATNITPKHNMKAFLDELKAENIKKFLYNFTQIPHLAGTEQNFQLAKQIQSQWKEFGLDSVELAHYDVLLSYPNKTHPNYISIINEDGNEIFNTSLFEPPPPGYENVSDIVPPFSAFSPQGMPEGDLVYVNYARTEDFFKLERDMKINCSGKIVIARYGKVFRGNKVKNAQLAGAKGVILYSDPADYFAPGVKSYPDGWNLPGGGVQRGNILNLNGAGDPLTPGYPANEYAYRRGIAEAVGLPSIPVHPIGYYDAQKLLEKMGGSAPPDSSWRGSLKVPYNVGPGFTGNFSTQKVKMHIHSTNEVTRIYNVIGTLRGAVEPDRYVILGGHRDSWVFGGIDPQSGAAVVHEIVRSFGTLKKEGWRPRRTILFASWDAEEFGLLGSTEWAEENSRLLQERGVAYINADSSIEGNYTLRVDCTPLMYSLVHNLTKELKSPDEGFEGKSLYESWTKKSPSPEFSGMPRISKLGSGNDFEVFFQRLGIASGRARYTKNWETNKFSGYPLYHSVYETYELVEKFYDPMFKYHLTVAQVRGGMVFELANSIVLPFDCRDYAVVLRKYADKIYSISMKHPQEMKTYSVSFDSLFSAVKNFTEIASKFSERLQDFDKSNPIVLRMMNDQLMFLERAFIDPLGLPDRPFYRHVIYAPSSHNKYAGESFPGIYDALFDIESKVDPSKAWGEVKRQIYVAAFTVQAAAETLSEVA
T3 sequence (Q04609 whole entry): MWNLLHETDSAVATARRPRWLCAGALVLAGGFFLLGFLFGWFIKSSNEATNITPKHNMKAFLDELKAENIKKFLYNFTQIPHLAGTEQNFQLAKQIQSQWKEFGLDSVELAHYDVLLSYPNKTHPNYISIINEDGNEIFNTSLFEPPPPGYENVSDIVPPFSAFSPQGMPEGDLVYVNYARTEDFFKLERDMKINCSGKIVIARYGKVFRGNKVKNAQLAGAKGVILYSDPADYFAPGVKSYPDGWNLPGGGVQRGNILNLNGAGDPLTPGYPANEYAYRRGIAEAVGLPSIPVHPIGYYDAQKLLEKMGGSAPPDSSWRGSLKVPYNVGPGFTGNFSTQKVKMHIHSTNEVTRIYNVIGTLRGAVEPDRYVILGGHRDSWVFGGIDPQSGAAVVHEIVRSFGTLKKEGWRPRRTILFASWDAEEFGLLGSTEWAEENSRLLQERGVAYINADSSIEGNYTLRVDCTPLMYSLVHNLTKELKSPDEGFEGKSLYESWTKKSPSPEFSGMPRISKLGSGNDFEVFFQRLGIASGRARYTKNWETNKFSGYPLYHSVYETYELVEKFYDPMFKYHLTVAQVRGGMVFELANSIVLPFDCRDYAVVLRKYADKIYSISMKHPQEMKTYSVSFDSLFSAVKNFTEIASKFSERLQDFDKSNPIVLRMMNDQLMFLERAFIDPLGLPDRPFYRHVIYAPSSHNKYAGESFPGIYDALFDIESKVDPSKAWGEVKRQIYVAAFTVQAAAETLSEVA
T4 sequence (O35409 45-752): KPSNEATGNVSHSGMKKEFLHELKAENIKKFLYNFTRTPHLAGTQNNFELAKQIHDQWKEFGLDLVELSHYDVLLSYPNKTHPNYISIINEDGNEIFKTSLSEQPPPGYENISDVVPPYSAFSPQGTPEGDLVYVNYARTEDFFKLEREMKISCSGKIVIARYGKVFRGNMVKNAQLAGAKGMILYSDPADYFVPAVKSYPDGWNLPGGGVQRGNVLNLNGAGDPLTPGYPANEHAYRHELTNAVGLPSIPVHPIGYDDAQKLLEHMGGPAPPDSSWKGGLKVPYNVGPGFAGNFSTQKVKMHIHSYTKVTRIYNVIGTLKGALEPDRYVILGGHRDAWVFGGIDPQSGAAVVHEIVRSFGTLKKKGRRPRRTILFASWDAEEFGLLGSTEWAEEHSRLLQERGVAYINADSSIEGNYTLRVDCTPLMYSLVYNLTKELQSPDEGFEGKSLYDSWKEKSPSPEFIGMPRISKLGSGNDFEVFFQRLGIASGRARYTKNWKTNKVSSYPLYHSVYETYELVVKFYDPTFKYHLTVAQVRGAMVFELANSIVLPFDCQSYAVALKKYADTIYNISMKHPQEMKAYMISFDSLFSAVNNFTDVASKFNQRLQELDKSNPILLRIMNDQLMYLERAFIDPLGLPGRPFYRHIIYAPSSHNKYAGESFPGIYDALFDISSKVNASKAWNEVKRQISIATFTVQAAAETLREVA

B1: W305042-1.135.2-uIgG1L (antibody, V domains shown)
VH: EVQLVQSGAEVKKPGESLKISCKASGYSFTTYWIGWVRQMPGKGLELMGIIYPYDSDTRYSPSFQGQVTISADKSINTAYLQWSSLKASDTAMYYCARITGGYLFDYWGQGILVTVSS
VL: QSALTQPPSASGSPGQSVTISCTGTSSDVGGYNYVSWYQQHPGKAPKLMIYEVTKRPSGVPDRFSGSKSGNTASLTVSGLQAEDEADYYCTSYAGSNKYVFGTGTKVTVLG
notes: Fully human anti-PSMA monoclonal antibody, human IgG1 with lambda light chain; also called WBP305042; W305042-1.135.2-uIgGIL
As to B1, the Kd (in general, the concentration at which binding is half-saturated) is 0.0294 nM in experiment [1] and 2.84 nM with Cyno PSMA.ECD.His (Acro) [2]. Also, the koff – broadly, the first-order rate constant of dissociation – was 1.12e-05 s⁻¹ in experiment [1] and 0.000584 s⁻¹ in the experiment with Cyno PSMA.ECD.His (Acro) [2]. The kon (as a rule, the second-order rate constant of association) in experiment [1] is 381000 M⁻¹ s⁻¹; in the experiment with Cyno PSMA.ECD.His (Acro) [2], 206000 M⁻¹ s⁻¹. The EC50 (as a rule, the midpoint of the concentration-response curve) was found to be 0.25 nM in experiment [3]; 0.017 nM in experiment [4]; 0.006 nM in the experiment with Cyno PSMA.ECD.His (Acro) [5]; 0.026 nM in experiment [6]; 2.25 nM in experiment [7].

For the origin of these results see US20250277054A1 (WUXI BIOLOGICS IRELAND, published 2025).
